Laboratory results as given in patent US20170306005A1 (NASCIENT, published 2017).
Numbering of substitutions follows the chain as printed. Blank lines part the entries; values can stand above or below the binder they belong to.

Assays:
Human FGB-rCd4 = molecular target: T1, Human FGB-rCd4; experiment: ELISA (DELFIA), antigen coated on the well, purified Fab at 50 nM, detected with anti-kappa or anti-lambda mAb and Europium-conjugated anti-mouse mAb
T1 construct: Not the same construct as m1, which has the FBG at the C terminus; also called human TNC FBG-rCD4; human tenascin-C FBG-rCd4-His (FBG at the N terminus of the rat Cd4 tag); not shown: rat Cd4 (domains 3 and 4) tag, the C-terminal His6 tag and the vector-derived junction residues of pBIOCAM4
T1 chain: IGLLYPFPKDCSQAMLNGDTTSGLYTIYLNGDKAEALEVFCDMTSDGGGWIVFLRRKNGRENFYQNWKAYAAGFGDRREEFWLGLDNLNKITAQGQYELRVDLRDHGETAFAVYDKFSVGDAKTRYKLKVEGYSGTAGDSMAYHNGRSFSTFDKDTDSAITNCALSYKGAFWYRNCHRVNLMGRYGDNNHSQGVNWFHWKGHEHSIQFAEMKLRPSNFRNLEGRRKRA

[1] = molecular target: T2, human tenascin-R rCd4-His-FBG (rat; human, UniProt P05540 207-392, limits assumed); experiment: SPR, captured Fab, 25 C
T2 construct: domain: domains 3 and 4; C-terminal FBG fusion; also called Hu TNR; human TNR rCd4-His-FBG; not shown: 6His tag
T2 sequence (chain (part 1 of 2)): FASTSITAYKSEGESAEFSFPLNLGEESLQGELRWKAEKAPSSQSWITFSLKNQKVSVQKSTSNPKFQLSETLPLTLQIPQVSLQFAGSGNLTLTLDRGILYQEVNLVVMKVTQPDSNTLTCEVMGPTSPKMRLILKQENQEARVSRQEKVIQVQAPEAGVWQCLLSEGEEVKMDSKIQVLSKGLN
T2 sequence (chain (part 2 of 2)): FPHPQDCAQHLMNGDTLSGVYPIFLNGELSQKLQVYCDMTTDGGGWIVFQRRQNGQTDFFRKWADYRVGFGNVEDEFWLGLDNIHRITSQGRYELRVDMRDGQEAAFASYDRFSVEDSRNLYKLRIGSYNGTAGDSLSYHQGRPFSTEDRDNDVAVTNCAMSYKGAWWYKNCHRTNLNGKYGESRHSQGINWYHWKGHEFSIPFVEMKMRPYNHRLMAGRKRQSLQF
Protocol: (§1) Experiments were performed using a BIAcore T100 instrument with CM5 sensor chip according to the protocol provided with the Human Fab Capture Kit (GE, 28-9583-25). […] After reference signal subtraction, the data was fitted to a global 1:1 fit using the T100 BIAevaluation software (FIGS. 6 a-d).

[2] = molecular target: T3, mouse tenascin-C rCd4-His-FBG (rat; mouse, UniProt P05540 207-392, limits assumed); experiment: SPR, captured Fab, 25 C
T3 construct: domain: domains 3 and 4; C-terminal FBG fusion; biotinylated in the ELISA screen; also called Mu TNC; mouse TNC rCd4-His-FBG; not shown: 6His tag
T3 sequence (chain (part 1 of 2)): T2 sequence (chain (part 1 of 2))
T3 sequence (chain (part 2 of 2)): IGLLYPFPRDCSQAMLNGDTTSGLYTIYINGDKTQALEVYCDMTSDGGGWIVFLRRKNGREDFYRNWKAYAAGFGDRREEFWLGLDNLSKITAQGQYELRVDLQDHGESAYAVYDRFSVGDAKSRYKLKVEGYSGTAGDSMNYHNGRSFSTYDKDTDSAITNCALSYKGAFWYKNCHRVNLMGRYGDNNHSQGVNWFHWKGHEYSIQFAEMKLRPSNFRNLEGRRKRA
Protocol: as §1

[3] = molecular target: T4, rat tenascin-C rCd4-His-FBG (rat, UniProt P05540 207-392, limits assumed); experiment: SPR, captured Fab, 25 C
T4 construct: domain: domains 3 and 4; C-terminal FBG fusion; also called Rat TNC; rat TNC rCD4-His-FBG; not shown: 6His tag
T4 sequence (chain (part 1 of 2)): T2 sequence (chain (part 1 of 2))
T4 sequence (chain (part 2 of 2)): T3 sequence (chain (part 2 of 2)) with A72T
Protocol: as §1

[4] = molecular target: T5, human tenascin-C rCd4-His-FBG (rat; human, UniProt P05540 207-392, limits assumed); experiment: SPR, captured Fab, 25 C
T5 construct: domain: domains 3 and 4; C-terminal FBG fusion; biotinylated in the ELISA and HTRF screens; also called Hu TNC; human TNC rCd4-His-FBG; not shown: 6His tag
T5 sequence (chain (part 1 of 2)): T2 sequence (chain (part 1 of 2))
T5 sequence (chain (part 2 of 2)): T1 chain
Protocol: as §1

human Fc-His-FBG = molecular target: T6, human Fc-His-FBG (human, UniProt P24821 1974-2201); experiment: cell-based or functional assay
T6 sequence: T1 chain

[5] = molecular target: T2, human tenascin-R rCd4-His-FBG; experiment: SPR steady state, captured Fab, 25 C
Protocol: as §1

[6] = molecular target: T3, mouse tenascin-C rCd4-His-FBG; experiment: SPR steady state, captured Fab, 25 C
Protocol: as §1

[7] = molecular target: T5, human tenascin-C rCd4-His-FBG; experiment: SPR, 25 C
[8] = molecular target: T5, human tenascin-C rCd4-His-FBG; experiment: SPR, 25 C; format not stated; SPR at 25 C
[9] = molecular target: T3, mouse tenascin-C rCd4-His-FBG; experiment: SPR, parental antibody

binding result (Human FGB-rCd4): binds
Kd [1]: 33.9 nM
koff [1]: 0.0473 s⁻¹
kon [1]: 1.4e+06 M⁻¹ s⁻¹
Kd [2]: 13 nM
koff [2]: 0.0675 s⁻¹
kon [2]: 5.22e+06 M⁻¹ s⁻¹
Kd [3]: 7.9 nM
koff [3]: 0.0748 s⁻¹
kon [3]: 9.46e+06 M⁻¹ s⁻¹
Kd [4]: 0.111 nM
koff [4]: 0.0003 s⁻¹
kon [4]: 2.66e+06 M⁻¹ s⁻¹
IC50, inhibition of Fc-His-HuFBG-evoked IL-8 release, THP1-Blue cells (human Fc-His-FBG): 6.9 nM
IC50, inhibition of Fc-His-HuFBG-evoked alkaline phosphatase, THP1-Blue cells (human Fc-His-FBG): 1.7 nM
Kd [5]: 36.1 nM
Kd [6]: 18.7 nM
fold stronger affinity than 2A5 [7]: ~100 fold
B1: Fab B12 (Fab, V domains shown)
VH: QVQLVESGGGLVQPGRSLRLSCAASGFTFDDYAMHWVRQAPGKGLEWVSGISGSGGSTYYADSVKGRFTISRDNAKNSLYLQMNSLRAEDTALYYCAKDISAVPDTFDIWGQGTMVTVSS
VL: DIQMTQSPASLPTPVGDRVTITCRASQYIQGFLNWYQQKPGKAPKLLIYDASNLETGVPSRFSGSGSGTDFTLTISSLQPEDFATYYCQQSYSTPQTFGQGTKVDIKR
notes: monomeric Fab

binding result (Human FGB-rCd4): binds
Kd [2]: 78.6 nM
koff [2]: 0.0347 s⁻¹
kon [2]: 441000 M⁻¹ s⁻¹
Kd [4]: 11.4 nM
koff [4]: 0.00563 s⁻¹
kon [4]: 496000 M⁻¹ s⁻¹
IC50, inhibition of Fc-His-HuFBG-evoked IL-8 release, THP1-Blue cells (human Fc-His-FBG): 28.5 nM
IC50, inhibition of Fc-His-HuFBG-evoked alkaline phosphatase, THP1-Blue cells (human Fc-His-FBG): 20.6 nM
Kd [8]: 15 nM
fold difference in affinity between human and mouse rCd4-his-FBG [9]: 6.9 fold
B2: Fab 2A5 (Fab, V domains shown)
VH: EVRLVQSGAEVKKPGASVKVSCKVSGYTLTELSMHWVRQAPGKGLEWMGGFDPEDGETIYAQKFQGRVTMTEDTSTDTAYMELSSLRSEDTAVYYCATAQKETYALTYWGQGTLVTVSS
VL: B1 VL with P14S, K45R, D50A, N53T, E55Q, T56D, S67Y, Q96W, D105E
notes: monomeric Fab
